The text below walks through data of paper PMC6440019, “The WRKY transcription factor GhWRKY27 coordinates the senescence regulatory pathway in upland cotton (Gossypium hirsutum L.)”.

Holding throughout (conditions): protein: recombinant; tags: 6xHis (pET-28a(+))
For data set [1], the target named is T1, GhWRKY27 (Gossypium hirsutum (CCRI74), UniProt A0A068LI73 1-355). In words: EMSA; self-competition; supershift with anti-GhWRKY27; LightShift Chemiluminescent EMSA Kit (Thermo), manufacturer's instructions; buffer, salt, pH and temperature not stated.
T1 sequence (A0A068LI73 entry or part of it): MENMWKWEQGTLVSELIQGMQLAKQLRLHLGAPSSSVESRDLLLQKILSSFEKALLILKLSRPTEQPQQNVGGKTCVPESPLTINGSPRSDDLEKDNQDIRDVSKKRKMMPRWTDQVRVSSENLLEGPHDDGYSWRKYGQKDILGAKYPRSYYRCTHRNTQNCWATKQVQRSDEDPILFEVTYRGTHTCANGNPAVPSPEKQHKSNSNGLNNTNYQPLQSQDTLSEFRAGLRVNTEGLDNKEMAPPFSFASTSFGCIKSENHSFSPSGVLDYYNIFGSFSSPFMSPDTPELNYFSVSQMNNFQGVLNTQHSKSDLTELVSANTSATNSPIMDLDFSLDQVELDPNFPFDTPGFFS
Data set [2] addresses T1, GhWRKY27. The experiment in a line: EMSA; self-competition abolishes band; supershift with anti-GhWRKY27; LightShift Chemiluminescent EMSA Kit (Thermo), manufacturer's instructions; buffer, salt, pH and temperature not stated. In general terms: Mobility shift assays separate free from complexed probe on a gel.
Data set [3] addresses T1, GhWRKY27. The experiment in a line: competition; excess unlabelled mutant vs labelled N1; LightShift Chemiluminescent EMSA Kit (Thermo), manufacturer's instructions; buffer, salt, pH and temperature not stated.

B1: GhRipen2-2 wild probe (dsDNA)
DNA 1: CTGGGCTCAGGTCAGAAAAGCTTTACTCGGGGCTTGACTCGTTTTCTAA
DNA 2: TTAGAAAACGAGTCAAGCCCCGAGTAAAGCTTTTCTGACCTGAGCCCAG
As to B1, the binding result in data set [1] is “binds”.

B2: GhCYP94C1 wild probe (dsDNA)
DNA 1: CCAGCTCCTCGCGAAAAGAAAAATGACTAAAAAAATATTTAATTCTTAGT
DNA 2: ACTAAGAATTAAATATTTTTTTAGTCATTTTTCTTTTCGCGAGGAGCTGG
B2: in data set [2], the binding result is given as “binds”.

B3: GhCYP94C1 mutant probe (dsDNA)
DNA 1: CCAGCTCCTCGCGAAAAGAAAAATGAAAAAAAAAATATTTAATTCTTAGT
DNA 2: ACTAAGAATTAAATATTTTTTTTTTCATTTTTCTTTTCGCGAGGAGCTGG
With B3, the binding result in data set [3] is on record as “no binding”.
